# pKd: −log10 of the molar value.
# Columns and labels:
# [1] = target: C. crescentus DriD (wild type) (C. crescentus); assay: fluorescence polarisation; DriD (WT or mutant) first bound to fluoresceinated target DNA with 100 μM ssDNA, then increasing αCTD titrated in; 25 mM Tris-HCl pH 7.5, 150 mM NaCl, 2.5 % glycerol; apparent Kd; three technical replicates
# [2] = tested on: DriD WT (Caulobacter crescentus); assay: fluorescence polarization; conditions: FP: 25 mM Tris-HCl pH 7.5, 150 mM NaCl, 2.5% glycerol, 100 uM ssDNA, temperature not stated; cryo-EM: 20 mM Tris-HCl pH 8, 5 mM MgCl2, 100 mM NaCl, 1 mM bME …
# [3] = tested on: DriD(G18K-A20K) (Caulobacter crescentus); assay: fluorescence polarization; conditions: FP: 25 mM Tris-HCl pH 7.5, 150 mM NaCl, 2.5% glycerol, 100 uM ssDNA, temperature not stated; cryo-EM: 20 mM Tris-HCl pH 8, 5 mM MgCl2, 100 mM NaCl, 1 mM bME …
pKd [1],Substance,pKd [2],pKd [3]
4.52,C. crescentus α subunit CTD (α residues 161–248) (domain or fragment),–,–
–,ATACGACAGTAACTGTCGTAT (double strand) [F-DriD target DNA],8.15,8.04

# Source: article PMC12340889
